{"source": "paper PMC10883916", "about": "“Cbp1 and Cren7 form chromatin-like structures that ensure efficient transcription of long CRISPR arrays”", "binders": {"B1": {"name": "CRISPR A repeat 1, 20 bp downstream (dsDNA)", "DNA 1": "GGAAGTATAAAAACACAACAGATTAATCCCAAAAGGAATTGAAAGGAACTAGCTTATAGTTTAGA", "DNA 2": "TCTAAACTATAAGCTAGTTCCTTTCAATTCCTTTTGGGATTAATCTGTTGTGTTTTTATACTTCC"}, "B2": {"name": "CRISPR A repeat 1, 2 bp downstream (dsDNA)", "DNA 1": "GGAAGTATAAAAACACAACAGATTAATCCCAAAAGGAATTGAAAGGA", "DNA 2": "TCCTTTCAATTCCTTTTGGGATTAATCTGTTGTGTTTTTATACTTCC"}, "B3": {"name": "CRISPR A repeat 1, 5 bp flanks (WT) (dsDNA)", "DNA 1": "CAACAGATTAATCCCAAAAGGAATTGAAAGGAACT", "DNA 2": "AGTTCCTTTCAATTCCTTTTGGGATTAATCTGTTG"}, "B4": {"name": "CRISPR A repeat 1 A13C/A14C (A13C/T14G in text) (dsDNA)", "DNA 1": "B3 DNA 1 with A18C, A19C", "DNA 2": "B3 DNA 2 with T17G, T18G"}, "B5": {"name": "CRISPR F repeat, 20 bp flanks (dsDNA)", "DNA 1": "AAAATTATTGACAAAAATAGGCTAATCTACTATAGAATTGAAAGCTACACCGATTCCGATACCC", "DNA 2": "GGGTATCGGAATCGGTGTAGCTTTCAATTCTATAGTAGATTAGCCTATTTTTGTCAATAATTTT"}, "B6": {"name": "CRISPR A repeat 1 A6C/T7G (dsDNA)", "DNA 1": "B3 DNA 1 with A11C, T12G", "DNA 2": "B3 DNA 2 with A24C, T25G"}, "B7": {"name": "CRISPR A repeat 1 T19G/T20G (dsDNA)", "DNA 1": "B3 DNA 1 with T24G, T25G", "DNA 2": "B3 DNA 2 with A11C, A12C"}, "B8": {"name": "CRISPR A repeat 1 A22C/A23C (dsDNA)", "DNA 1": "B3 DNA 1 with A27C, A28C", "DNA 2": "B3 DNA 2 with T8G, T9G"}, "B9": {"name": "CRISPR A repeat, 20 bp flanks (Fig. 1e) (dsDNA)", "DNA 1": "CATCTTCTCTCATCACCTTCGATTAATCCCAAAAGGAATTGAAAGAATGTATAAAGGTAACCAGG", "DNA 2": "CCTGGTTACCTTTATACATTCTTTCAATTCCTTTTGGGATTAATCGAAGGTGATGAGAGAAGATG"}, "B10": {"name": "CRISPR D repeat, 20 bp flanks (dsDNA)", "DNA 1": "AACTAACAAATATACGCCTTGATAATCTCTTATAGAATTGAAAGTCAATTTGTGAAACTTGTCC", "DNA 2": "GGACAAGTTTCACAAATTGACTTTCAATTCTATAAGAGATTATCAAGGCGTATATTTGTTAGTT"}, "B11": {"name": "ISC1229 non-canonical Cbp1 binding site (dsDNA)", "DNA 1": "AACTTCAAGCATAGTGTCAACTAAGATTGCCACGTGAATTGAAAGGATTCACGTGGCGATTTTGG", "DNA 2": "CCAAAATCGCCACGTGAATCCTTTCAATTCACGTGGCAATCTTAGTTGACACTATGCTTGAAGTT"}}, "key": {"Cbp1;Cren7 [1]": {"biological_target": "T1, Cbp1;Cren7 (Saccharolobus (Sulfolobus) solfataricus …, UniProt Q97ZW9;Q97ZE3 1-150;1-60, |)", "T1 sequence 1": "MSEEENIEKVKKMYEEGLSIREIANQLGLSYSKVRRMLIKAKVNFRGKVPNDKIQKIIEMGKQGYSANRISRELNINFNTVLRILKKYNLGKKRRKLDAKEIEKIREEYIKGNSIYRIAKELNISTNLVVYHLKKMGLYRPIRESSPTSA", "T1 sequence 2": "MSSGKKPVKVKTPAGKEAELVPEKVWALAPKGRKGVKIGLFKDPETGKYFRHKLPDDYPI", "assay": "EMSA; 12.5 nM Cbp1, 12.5-25 nM Cren7; two Cren7 recruited; EMSA: 800 pM DNA, 10 mM MOPS pH 6.5, 100 mM KCl, 10 mM MgCl2, 2 µg BSA, 10% glycerol, 5 mM DTT, 75 °C 5 min; long templates: 10 mM MOPS pH 6.5, 10 mM MgCl2, 105 mM KCl, 10% glycerol, 10 mM DTT, 5 µg/ml heparin, 2 mM spermidine, 65 °C", "settings": "protein: recombinant;recombinant; tags: ;; copies: 1;2; label: 5'-32P; blunt"}, "Cbp1 [2]": {"biological_target": "T2, Cbp1 (Saccharolobus (Sulfolobus) solfataricus …, UniProt Q97ZW9 1-150)", "T2 sequence": "T1 sequence 1", "assay": "EMSA; WT reference; EMSA: 800 pM DNA, 10 mM MOPS pH 6.5, 100 mM KCl, 10 mM MgCl2, 2 µg BSA, 10% glycerol, 5 mM DTT, 75 °C 5 min; long templates: 10 mM MOPS pH 6.5, 10 mM MgCl2, 105 mM KCl, 10% glycerol, 10 mM DTT, 5 µg/ml heparin, 2 mM spermidine, 65 °C", "settings": "protein: recombinant; label: 5'-32P; blunt"}, "Cbp1 [3]": {"biological_target": "T2, Cbp1", "assay": "EMSA; not reduced vs WT repeat; EMSA: 800 pM DNA, 10 mM MOPS pH 6.5, 100 mM KCl, 10 mM MgCl2, 2 µg BSA, 10% glycerol, 5 mM DTT, 75 °C 5 min; long templates: 10 mM MOPS pH 6.5, 10 mM MgCl2, 105 mM KCl, 10% glycerol, 10 mM DTT, 5 µg/ml heparin, 2 mM spermidine, 65 °C", "settings": "protein: recombinant; label: 5'-32P; blunt"}, "Cbp1;Cren7 [4]": {"biological_target": "T1, Cbp1;Cren7", "assay": "EMSA; 12.5 nM Cbp1, 3.125-25 nM Cren7; weaker Cren7 affinity than CRISPR A; EMSA: 800 pM DNA, 10 mM MOPS pH 6.5, 100 mM KCl, 10 mM MgCl2, 2 µg BSA, 10% glycerol, 5 mM DTT, 75 °C 5 min; long templates: 10 mM MOPS pH 6.5, 10 mM MgCl2, 105 mM KCl, 10% glycerol, 10 mM DTT, 5 µg/ml heparin, 2 mM spermidine, 65 °C", "settings": "protein: recombinant;recombinant; tags: ;; copies: 1;2; label: 5'-32P; blunt"}, "Cbp1 [5]": {"biological_target": "T2, Cbp1", "assay": "EMSA; 12.5 nM Cbp1; stronger than CRISPR A; EMSA: 800 pM DNA, 10 mM MOPS pH 6.5, 100 mM KCl, 10 mM MgCl2, 2 µg BSA, 10% glycerol, 5 mM DTT, 75 °C 5 min; long templates: 10 mM MOPS pH 6.5, 10 mM MgCl2, 105 mM KCl, 10% glycerol, 10 mM DTT, 5 µg/ml heparin, 2 mM spermidine, 65 °C", "settings": "protein: recombinant; label: 5'-32P; blunt"}, "Cbp1 ΔHTH1": {"biological_target": "T3, Cbp1 ΔHTH1 (S. solfataricus P2, UniProt Q97ZW9 1-1+51-150, internal_change)", "T3 sequence": "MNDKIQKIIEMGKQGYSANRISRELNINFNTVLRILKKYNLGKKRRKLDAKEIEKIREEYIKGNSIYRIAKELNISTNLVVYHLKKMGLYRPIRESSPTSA", "assay": "EMSA; 160 nM; unaffected by mutation vs ΔHTH1 on WT repeat; EMSA: 800 pM DNA, 10 mM MOPS pH 6.5, 100 mM KCl, 10 mM MgCl2, 2 µg BSA, 10% glycerol, 5 mM DTT, 75 °C 5 min; long templates: 10 mM MOPS pH 6.5, 10 mM MgCl2, 105 mM KCl, 10% glycerol, 10 mM DTT, 5 µg/ml heparin, 2 mM spermidine, 65 °C", "settings": "protein: recombinant; label: 5'-32P; blunt"}, "Cbp1 ΔHTH3": {"biological_target": "T4, Cbp1 ΔHTH3 (S. solfataricus P2, UniProt Q97ZW9 1-87+136-150, internal_change)", "T4 sequence": "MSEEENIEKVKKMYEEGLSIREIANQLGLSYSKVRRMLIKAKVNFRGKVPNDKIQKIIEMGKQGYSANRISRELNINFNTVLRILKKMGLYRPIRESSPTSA", "assay": "EMSA; 80 nM; no apparent effect of mutation; EMSA: 800 pM DNA, 10 mM MOPS pH 6.5, 100 mM KCl, 10 mM MgCl2, 2 µg BSA, 10% glycerol, 5 mM DTT, 75 °C 5 min; long templates: 10 mM MOPS pH 6.5, 10 mM MgCl2, 105 mM KCl, 10% glycerol, 10 mM DTT, 5 µg/ml heparin, 2 mM spermidine, 65 °C", "settings": "protein: recombinant; label: 5'-32P; blunt"}, "Cbp1;Cren7 [6]": {"biological_target": "T1, Cbp1;Cren7", "assay": "EMSA; 12.5 nM Cbp1, 3.125-25 nM Cren7; second Cren7 at higher concentration; EMSA: 800 pM DNA, 10 mM MOPS pH 6.5, 100 mM KCl, 10 mM MgCl2, 2 µg BSA, 10% glycerol, 5 mM DTT, 75 °C 5 min; long templates: 10 mM MOPS pH 6.5, 10 mM MgCl2, 105 mM KCl, 10% glycerol, 10 mM DTT, 5 µg/ml heparin, 2 mM spermidine, 65 °C", "settings": "protein: recombinant;recombinant; tags: ;; copies: 1;2; label: 5'-32P; blunt"}, "Cbp1;Cren7 [7]": {"biological_target": "T1, Cbp1;Cren7", "assay": "EMSA; 12.5 nM Cbp1, 3.125-25 nM Cren7; EMSA: 800 pM DNA, 10 mM MOPS pH 6.5, 100 mM KCl, 10 mM MgCl2, 2 µg BSA, 10% glycerol, 5 mM DTT, 75 °C 5 min; long templates: 10 mM MOPS pH 6.5, 10 mM MgCl2, 105 mM KCl, 10% glycerol, 10 mM DTT, 5 µg/ml heparin, 2 mM spermidine, 65 °C", "settings": "protein: recombinant;recombinant; tags: ;; copies: 1;2; label: 5'-32P; blunt"}}, "note": "Where a chain is given by its changes, count along the chain named. Names may count otherwise."}
{"binder": "B1", "values": [{"measurement": "binding result", "setting": "Cbp1;Cren7 [1]", "value": "binds"}]}
{"binder": "B2", "values": [{"measurement": "binding result", "setting": "Cbp1;Cren7 [1]", "value": "binds"}]}
{"binder": "B3", "values": [{"measurement": "binding result", "setting": "Cbp1 [2]", "value": "binds"}]}
{"binder": "B4", "values": [{"measurement": "binding result", "setting": "Cbp1 [3]", "value": "binds"}]}
{"binder": "B5", "values": [{"measurement": "binding result", "setting": "Cbp1;Cren7 [4]", "value": "binds"}, {"measurement": "binding result", "setting": "Cbp1 [5]", "value": "binds"}]}
{"binder": "B6", "values": [{"measurement": "binding result", "setting": "Cbp1 ΔHTH1", "value": "binds"}]}
{"binder": "B7", "values": [{"measurement": "binding result", "setting": "Cbp1 ΔHTH3", "value": "binds"}]}
{"binder": "B8", "values": [{"measurement": "binding result", "setting": "Cbp1 ΔHTH3", "value": "binds"}]}
{"binder": "B9", "values": [{"measurement": "binding result", "setting": "Cbp1;Cren7 [6]", "value": "binds"}]}
{"binder": "B10", "values": [{"measurement": "binding result", "setting": "Cbp1;Cren7 [4]", "value": "binds"}]}
{"binder": "B11", "values": [{"measurement": "binding result", "setting": "Cbp1;Cren7 [7]", "value": "binds"}]}
